From patent US10358464B2, “Specific binding sites in collagen for integrins and use thereof” (The Texas A&M University System, priority 2005, dated 2019)
Like-named read-outs stand apart in the source and are kept apart here. Non-standard residues stand in square brackets, D forms with d. Residues, ends and D or L forms follow the SMILES beside them. No end group written: not given here. Hyp = O=C(O)[C@@H]1C[C@@H](O)CN1

B1: Collagen III: recombinant human procollagen III in SPR; human recombinant mature type III collagen (FibroGen) in cell attachment assay (protein)
chain: QQEAVEGGCSHLGQSYADRDVWKPEPCQICVCDSGSVLCDDIICDDQELDCPNPEIPFGECCAVCPQPPTAPTRPPNGQGPQGPKGDPGPPGIPGRNGDPGIPGQPGSPGSPGPPGICESCPTGPQNYSPQYDSYDVKSGVAVGGLAGYPGPAGPPGPPGPPGTSGHPGSPGSPGYQGPPGEPGQAGPSGPPGPPGAIGPSGPAGKDGESGRPGRPGERGLPGPPGIKGPAGIPGFPGMKGHRGFDGRNGEKGETGAPGLKGENGLPGENGAPGPMGPRGAPGERGRPGLPGAAGARGNDGARGSDGQPGPPGPPGTAGFPGSPGAKGEVGPAGSPGSNGAPGQRGEPGPQGHAGAQGPPGPPGINGSPGGKGEMGPAGIPGAPGLMGARGPPGPAGANGAPGLRGGAGEPGKNGAKGEPGPRGERGEAGIPGVPGAKGEDGKDGSPGEPGANGLPGAAGERGAPGFRGPAGPNGIPGEKGPAGERGAPGPAGPRGAAGEPGRDGVPGGPGMRGMPGSPGGPGSDGKPGPPGSQGESGRPGPPGPSGPRGQPGVMGFPGPKGNDGAPGKNGERGGPGGPGPQGPPGKNGETGPQGPPGPTGPGGDKGDTGPPGPQGLQGLPGTGGPPGENGKPGEPGPKGDAGAPGAPGGKGDAGAPGERGPPGLAGAPGLRGGAGPPGPEGGKGAAGPPGPPGAAGTPGLQGMPGERGGLGSPGPKGDKGEPGGPGADGVPGKDGPRGPTGPIGPPGPAGQPGDKGEGGAPGLPGIAGPRGSPGERGETGPPGPAGFPGAPGQNGEPGGKGERGAPGEKGEGGPPGVAGPPGGSGPAGPPGPQGVKGERGSPGGPGAAGFPGARGLPGPPGSNGNPGPPGPSGSPGKDGPPGPAGNTGAPGSPGVSGPKGDAGQPGEKGSPGAQGPPGAPGPLGIAGITGARGLAGPPGMPGPRGSPGPQGVKGESGKPGANGLSGERGPPGPQGLPGLAGTAGEPGRDGNPGSDGLPGRDGSPGGKGDRGENGSPGAPGAPGHPGPPGPVGPAGKSGDRGESGPAGPAGAPGPAGSRGAPGPQGPRGDKGETGERGAAGIKGHRGFPGNPGAPGSPGPAGQQGAIGSPGPAGPRGPVGPSGPPGKDGTSGHPGPIGPPGPRGNRGERGSEGSPGHPGQPGPPGPPGAPGPCCGGVGAAAIAGIGGEKAGGFAPYYGDEPMDFKINTDEIMTSLKSVNGQIESLISPDGSRKNPARNCRDLKFCHPELKSGEYWVDPNQGCKLDAIKVFCNMETGETCISANPLNVPRKHWWTDSSAEKKHVWFGESMDGGFQFSYGNPELPEDVLDVHLAFLRLLSSRASQNITYHCKNSIAYMDQASGNVKKALKLMGSNEGEFKAEGNSKFTYTVLEDGCTKHTGEWSKTVFEYRTRKAVRLPIVDIAPYDIGGPDQEFGVDVGPVCFL
modifications: non-natural residues
notes: recombinant human procollagen III in SPR; human recombinant mature type III collagen (FibroGen) in cell attachment assay

Tests used:
[1] = CD temperature-dependent denaturation of triple helix; assay type: physicochemical; conditions: CD ellipticity at 225 nm, 20° C./hr, Boltzmann sigmoidal fit
Description: Circular Dichroism (CD) Spectroscopy. Synthetic collagen peptides were analyzed by CD spectroscopy, as described previously (18) with the following modifications. Briefly, peptides were dissolved in HBS to a concentration of 50 μM. CD spectra were collected on a Jasco J720 spectropolarimeter (Tokyo, Japan) from 190 to 240 nm, with bandwidth of 1 nm and integrated for 1 s at 0.2 nm intervals. Samples were measured at room temperature using cuvettes with 0.02 cm path length. For temperature-dependent denaturation analysis, […] of peptides were added to a thermostatically controlled cuvette with a 0.5 cm path length. Thermal transition profiles were recorded at 225 nm as described above with a temperature slope of 20° C./hr. To calculate the temperature melting points, the thermal transition profiles were fitted with Boltzmann sigmoidal model using the GraphPad Prism™ software (GraphPad Software Inc., San Diego, Calif.).

[2] = target: T1, α1I binding to type III collagen (Homo sapiens, UniProt P56199); test: Competition ELISA, inhibition of I domain binding to type III collagen; conditions: 100 μM peptide, 0.5 μM α1I, type III procollagen-coated wells
T1 construct: recombinant I domains from integrins α1 and α2 (α1I and α2I); made in house

MRC-5 cells = test: Cell attachment assay on coated substrates; assay type: cell-based, human; conditions: increasing coating concentrations, 1.5×10^4 cells per well, 45 min, room temperature
Description: Reagents and Cell Culture. The human recombinant mature type III collagen used for cell attachment assays was purchased from FibroGen. All cell culture media components were purchased from Invitrogen. The human lung fibroblast cell line MRC-5 was purchased from American Type Culture Collection (ATCC) (Manassas, Va.). The cells were cultured and passaged in Dulbecco's modified Eagle's medium (DMEM) supplemented with 10% fetal bovine serum, 100 unit/ml penicillin and 100 μg/ml streptomycin. The cells were grown to subconfluence and passaged every 2-3 days.
Cell attachment assay. MRC-5 cells were starved overnight in serum deficient DMEM containing penicillin and streptomycin, then detached using 1 mM EDTA and 0.025% trypsin at 37° C. for 2 minutes. The cells were washed with PBS and resuspended in DMEM containing 0.2% BSA supplemented with 2 mM MgCl2. 100 μl of the cell suspension (˜1.5×10^5 cells/ml) were added to the microtiter wells coated with different concentrations of collagen or collagen peptides and blocked with PBS containing 0.5% (w/v) BSA. After incubation at room temperature for 45 min, the wells were washed with PBS. Attached cells were fixed with 3% p-formaldehyde for 10 min at room temperature. Following washing with cold Tris-buffered saline (TBS), pH 7.4, cells were fixed again in 20% methanol for 10 min and stained with 0.5% crystal violet for 5 min. The wells were thoroughly washed with distilled water and air-dried. Sodium citrate (0.1 M) was then added to the wells to dissolve the dye and the absorbance at 590 nm was measured. The maximum cell attachment on type III collagen was set to 100% and, residual attachment on BSA was set to 0%.
Adhesion of MRC-5 cells to peptide#1 (SEQ ID NO: 15) substrates. […] Wells in 96-well plates were coated with increasing concentrations of type III collagen, peptide #1 (SEQ ID NO: 15) or #2 (SEQ ID NO: 16) and 1.5×10^4 MRC-5 cells were added to each well. The plate was incubated for 45 min at room temperature and adhering cells were quantified as described herein.

[3] = target: T2, α2I binding to type III collagen (Homo sapiens, UniProt P17301); test: Competition ELISA, inhibition of I domain binding to type III collagen; conditions: 100 μM peptide, 5 μM α2I, type III procollagen-coated wells
T2 construct: recombinant I domains from integrins α1 and α2 (α1I and α2I); made in house

[4] = target: T3, α2I (recombinant I domain of integrin α2) (Homo sapiens, UniProt P17301); test: SPR (BIAcore 3000), I domain binding to immobilized fibrillar collagens; conditions: equilibrium analysis, 1 mM MgCl2
T3 construct: recombinant I domains from integrins α1 and α2 (α1I and α2I); made in house
Description: Surface Plasmon Resonance (SPR) measurements. For the analyses of interactions between recombinant I domains and fibrillar collagens, SPR measurements were carried out at ambient temperature using the BIAcore 3000 system (BIAcore, Uppsala, Sweden) as described previously (21) with following modifications. First, purified recombinant human procollagens I and III (described above), or bovine mature type II collagen (Sigma) were immobilized on the flow cells of a CM5 chip resulting in 200-700 response units of immobilized protein.
SPR sensorgrams from different injections were overlaid using the BIAevaluation software (BIAcore AB). Data from the steady state portion of the sensorgrams were used to determine the binding affinities. Based on the correlation between the SPR response and change in protein mass on the surfaces of flow cells, values for the binding ratio, νbound, and the concentration of free protein, [P]free, were calculated using the equations described previously (21). Scatchard analysis was performed by plotting νbound/[P]free against νbound in which the negative reciprocal of the slope is the dissociation constant, KD. Nonlinear regression was also performed by plotting νbound against [P]free and fitted with the one-binding class or the two-binding class models using the GraphPad Prism™ software (GraphPad Software Inc., San Diego, Calif.). Results from the two models were compared with respect to the value of R^2 and the degree of freedom of the curve fit. The model that gave KD values outside the experimental data range was excluded. Experimental results were reproducible with at least three independent protein preparations.
The interactions between the two I domains and fibrillar collagens (types I, II and III) were examined by SPR. Solutions of 1 μM α1I or α2I were passed over chips containing immobilized collagen I, II, or III in the presence of 1 mM MgCl2.
The BIAcore 3000 system used in the present invention had higher sensitivity of detection which enabled examination of the interactions between α2I and collagens at a sub-micromolar concentration range. […] The binding affinities of α2I to the three types of collagen appeared to be slightly more variable.

[5] = first line per collagen in Table 2 (unit from b77), read-out: KD, high affinity binding class
[6] = second line per collagen in Table 2 (unit from b77), read-out: KD, low affinity binding class

T3 sequence (P17301 188-365 limits assumed): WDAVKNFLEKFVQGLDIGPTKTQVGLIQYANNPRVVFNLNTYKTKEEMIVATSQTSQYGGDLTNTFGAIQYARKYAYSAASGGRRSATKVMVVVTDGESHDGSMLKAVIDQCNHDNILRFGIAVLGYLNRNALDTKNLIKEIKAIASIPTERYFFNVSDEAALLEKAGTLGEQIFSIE
T1 sequence (P56199 161-360 limits assumed): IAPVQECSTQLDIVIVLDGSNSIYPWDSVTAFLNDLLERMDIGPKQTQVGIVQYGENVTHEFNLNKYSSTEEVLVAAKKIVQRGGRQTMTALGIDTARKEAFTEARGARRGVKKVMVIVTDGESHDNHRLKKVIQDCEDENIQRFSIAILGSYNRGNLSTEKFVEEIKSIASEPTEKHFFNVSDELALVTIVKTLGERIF
T2 sequence (P17301 188-365 limits assumed): as the sequence (P17301 188-365 limits assumed) above

| Molecule | inhibition of binding of α1I to type III collagen [2] | adhesion of MRC-5 cells to coated substrate (MRC-5 cells) | inhibition of binding of α2I to type III collagen [3] | Kd [4, 5] [µM] | Kd [4, 6] [µM] | other results |
| --- | --- | --- | --- | --- | --- | --- |
| N=C(N)NCCC[C@H](NC(=O)[C@H](CCC(=O)O)NC(=O)CNC(=O)[C@@H]1C[C@@H](O)CN1C(=O)[C@H](CCCNC(=N)N)NC(=O)CNC(=O)[C@@H]1C[C@@H](O)CN1C(=O)[C@@H]1CCCN1C(=O)CNC(=O)[C@@H]1C[C@@H](O)CN1C(=O)[C@@H]1CCCN1C(=O)CNC(=O)[C@@H]1C[C@@H](O)CN1C(=O)[C@@H]1CCCN1C(=O)CN)C(=O)NCC(=O)N1CCC[C@H]1C(=O)N1C[C@H](O)C[C@H]1C(=O)NCC(=O)N1CCC[C@H]1C(=O)N1C[C@H](O)C[C@H]1C(=O)NCC(=O)N1CCC[C@H]1C(=O)N1C[C@H](O)C[C@H]1C(N)=O [GROGER] (H-GP[Hyp]GP[Hyp]GP[Hyp]GR[Hyp]GERGP[Hyp]GP[Hyp]GP[Hyp]-NH2; N-terminus and C-terminus assumed) |  |  |  |  |  | melting temperature (Tm) of triple helix [1]: 41 °C |
| (GPO)3GAOGERGROGLO(GPO)3 (GP[Hyp]GP[Hyp]GP[Hyp]GA[Hyp]GERGR[Hyp]GL[Hyp]GP[Hyp]GP[Hyp]GP[Hyp]) [peptide #2] | 40% | could not | 60% |  |  |  |
| (GPO)11 (GPRGRT) [peptide #3, control peptide, reference compound] | did not show any inhibitory activity |  | did not show any inhibitory activity |  |  |  |
| Collagen I: purified recombinant human procollagen I immobilized for SPR; type I collagen of the cited earlier study |  |  |  | 0.26 ± 0.08 | 3.99 ± 0.82 | Kd ([4]; first line per collagen in Table 2 (unit from b77), listed as type I collagen, read-out: KD, high affinity binding class): ~0.3 µM; Kd ([4]; second line per collagen in Table 2 (unit from b77), listed as type I collagen, read-out: KD, low affinity binding class): ~4 µM |
| Collagen II: bovine mature type II collagen (Sigma) |  |  |  | 1.75 | 16.5 ± 3.89 | Kd ([4]; second line per collagen in Table 2 (unit from b77), listed as type II collagen, read-out: KD, low affinity binding class): ~16.5 µM |
| B1 |  | could support adhesion of MRC-5 cells in a dose-dependent manner |  | 0.33 ± 0.03 | 14.5 ± 3.41 | Kd ([4]; first line per collagen in Table 2 (unit from b77), listed as type III collagen, read-out: KD, high affinity binding class): ~0.3 µM; Kd ([4]; second line per collagen in Table 2 (unit from b77), listed as type III collagen, read-out: KD, low affinity binding class): ~14.5 µM |
